Earlier results as cited in PMC7072806.
Read-outs that look alike come from different tables or passages of the source.

How the values were obtained:
CCR5 (Homo sapiens) [1] = target: CCR5 (Homo sapiens) (UniProt P51681); assay: SPR
CCR5 (Homo sapiens) [2] = target: CCR5 (Homo sapiens) (UniProt P51681)

UniProt P51681, sequence (P51681 whole entry): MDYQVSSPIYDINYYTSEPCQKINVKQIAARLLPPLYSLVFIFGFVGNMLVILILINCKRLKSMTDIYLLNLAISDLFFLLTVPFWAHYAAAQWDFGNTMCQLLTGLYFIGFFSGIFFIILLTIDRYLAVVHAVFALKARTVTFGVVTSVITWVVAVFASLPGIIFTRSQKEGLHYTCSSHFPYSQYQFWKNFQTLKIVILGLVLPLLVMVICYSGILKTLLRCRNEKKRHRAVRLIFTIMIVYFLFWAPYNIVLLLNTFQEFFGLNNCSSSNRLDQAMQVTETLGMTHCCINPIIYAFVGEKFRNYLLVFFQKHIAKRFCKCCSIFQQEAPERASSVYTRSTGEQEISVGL

Kd (CCR5 (Homo sapiens) [1]) [nM]	Kd (CCR5 (Homo sapiens) [2]) [nM]	Substance
5000	–	eNAMPT (from UniProt P43490)
–	0.4	RANTES (from UniProt P13501)
